Consider 19 molecules from patent US20180355059A1 (PHARMAEXPLORER, published 2018).

Experiment [1] addresses T1, recombinant human PCSK9 protein, His-tagged (Immunogen A, hPCSK9-His) (human, UniProt Q8NBP7 31-692, limits assumed, biotin-labelled in the ELISA and blocking assays (Biotin labeling kit)).
T1 construct: also called human PCSK9-His; recombinant hPCSK9-His; not shown: His tag
Description: ELISA, biotin-hPCSK9-His on streptavidin plate; antibody 0.67 nM.

The target in experiment [2] is T1, recombinant human PCSK9 protein, …. Description: ELISA, biotin-hPCSK9-His on streptavidin plate; antibody 6.67 nM.
For experiment [3] the target is unchanged. Description: ELISA, biotin-hPCSK9-His on streptavidin plate; antibody 0.067 nM.
Description: (§1) The next day, the plates were washed twice with wash buffer [0.01% (v/v) Tween 20], then blocked with blocking buffer [0.01% (v/v) 0.1% BSA (w/w) Tween 20] at room temperature for 2 hours. […] Unbound PCSK9 proteins were removed by washing the plate three times with wash buffer [0.01% (v/v) Tween 20]. […] The plates were washed twice with wash buffer [0.01% (v/v) Tween 20], and 200 uL HRP-conjugated secondary antibody (Sigma) was added to each well and incubated for 2 hours at 37° C. After the plates were washed three times with wash buffer, 100 ul TMB substrate were added to each well and incubated for 30 minutes at room temperature. 100 ul stop solution (0.1N HCl) were added to each well to stop the reaction.
For experiment [4] the target is unchanged. The experiment can be described thus: ELISA, biotin-hPCSK9-His on streptavidin plate; antibody 66.67 nM.
Description: as §1
Experiment [5] has the same target. The experiment can be described thus: ELISA, biotin-hPCSK9-His on streptavidin plate; antibody 0.0067 nM.
Description: as §1
Experiment [6] shares this target. The experiment can be described thus: ELISA, biotin-hPCSK9-His on streptavidin plate; antibody 0.00067 nM.
Description: as §1
Experiment [7] shares this target. The experiment can be described thus: ELISA, biotin-hPCSK9-His on streptavidin plate; antibody 0.000067 nM.
Experiment [8] shares this target. The experiment can be described thus: ELISA, biotin-hPCSK9-His on streptavidin plate; antibody 0 nM (blank).
Description: as §1
Experiment [9] has the same target. The experiment can be described thus: blocking ELISA, biotin-hPCSK9-His on coated LDLR ECD-His; antibody 8 nM.
Description: (§2) Purified LDLR^ECD-His was diluted with PBS to a final concentration of 1.0 ug/ml, and 100 uL of diluted LDLR^ECD-His were added to each well of 96-well plate that was then sealed with plastic film and incubated at 4° C. overnight. The plate was washed twice with wash buffer [PBS+0.01% (v/v) Tween 20] and incubated with blocking buffer [PBS+0.01% (v/v) BSA+1% Tween20 (w/w)] at room temperature for 2 hours. […] The plate was washed three times with wash buffer [0.01% (v/v) Tween 20]. 100 uL HRP-conjugated streptavidin (Sigma) were then added to each well and incubated at 37° C. for 1 hour. The plate was then washed three times with wash buffer, and 100 uL TMB substrate were added to each well. After 15 minutes of incubation at room temperature, the reaction was stopped by adding 50 uL stop solution (0.1N HCl).
Experiment [10] has the same target. The experiment can be described thus: blocking ELISA, biotin-hPCSK9-His on coated LDLR ECD-His; antibody 40 nM.
Description: as §2
For experiment [11] the target is unchanged. The experiment can be described thus: blocking ELISA, biotin-hPCSK9-His on coated LDLR ECD-His; antibody 200 nM.
Description: as §2
The target is the same in experiment [12]. The experiment can be described thus: blocking ELISA, biotin-hPCSK9-His on coated LDLR ECD-His; antibody 0.01 nM.
Experiment [13] has the same target. The experiment can be described thus: blocking ELISA, biotin-hPCSK9-His on coated LDLR ECD-His; antibody 0.06 nM.
Description: as §2
Experiment [14] shares this target. Description: blocking ELISA, biotin-hPCSK9-His on coated LDLR ECD-His; antibody 0.32 nM.
Description: as §2
The target in experiment [15] is T2, recombinant human PCSK9-His protein (Immunogen A) (human, UniProt Q8NBP7 31-692, limits assumed, biotinylated in the ELISA assays).
T2 construct: also called hPCSK9-His; His-tagged hPCSK9; not shown: His tag
Description: SPR, Biacore.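 Further: antibodies captured via immobilized anti-human Fc IgG on a CM5 chip, PCSK9 as analyte in HBS-EP+ buffer, 400 s dissociation, reference flow cell subtracted, 1:1 binding model fit.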

Numbering of substitutions follows the chain as printed.

B1: 103C11E8, chimeric anti-PCSK9 mAb purified from hybridoma (antibody, V domains shown)
VH: QVQLQESGPGLVKPSGTLSLTCAVSGGSISSSNWWSWVRQPPGKGLEWIGEIYHSGSTNYNPSLKSRVTISVDKSKNQFSLKLSSVTAADTAVYYCARGIAVAGTDVMDAWGQGASVTVSS
VL: EIVLTQSPATLSLSPGERATLSCRASQSVSSYLVWYQQKSGQAPRLLIYGTSNRATGIPARFSGSGSGTDFTLTISSLEPEDFALYYCQQRGNWMYTFGQGTKLEIK
notes: From Harbour H2L2 mice: human variable regions, rat constant regions
For the molecule B1, the OD450 nm is 2.41 OD450 nm in experiment [1]; 2.71 OD450 nm in experiment [2]; 0.68 OD450 nm in [3]; 2.72 OD450 nm in experiment [4]; 0.21 OD450 nm in experiment [5]; 0.15 OD450 nm in [6]. In addition, the OD450 nm was found to be 0.11 OD450 nm in experiment [7] and 0.14 OD450 nm in [8]. For the same molecule, the “OD450 nm (PCSK9 bound to LDLR)” value in experiment [9] was 0.87 OD450 nm; in experiment [10], 0.77 OD450 nm; in experiment [11], 0.54 OD450 nm; in experiment [12] it was 0.97 OD450 nm; in experiment [13] it was 0.96 OD450 nm; in experiment [14] it was 0.92 OD450 nm.

B2: AF-mab023_01 (antibody, V domains shown)
VH: EVQLVESGGGLVQPGGSLRLSCAASGITFSSYWMSWVRQAPGKGLEWVANIKQDGSEKYYVDSVKGRFTISRDIAKNSLYLQMNSLRAEDTAVYYCARDRGTYYYGIGSYNYYYYGMDVWGQGTTVTVSS
VL: not shown
In the case of B2, in experiment [15], the Kd is 360 pM, the koff was found to be 0.000115 s⁻¹ and the kon is 320000 M⁻¹ s⁻¹.

B3: AF-mab023_16 (antibody, V domains shown)
VH: B2 VH with G106Q, I107D, S109K
VL: not shown
Take B3: in experiment [15], the Kd was determined as 447 pM, the koff is 0.000143 s⁻¹ and the kon is 319000 M⁻¹ s⁻¹.

B4: AF-mab023_07 (antibody, V domains shown)
VH: B2 VH with G106Q, I107Q
VL: not shown
Take B4: in [15], the Kd amounted to 653 pM, the koff stood at 0.000214 s⁻¹ and the kon was determined as 327000 M⁻¹ s⁻¹.

B5: AF-mab023_19 (antibody, V domains shown)
VH: B2 VH with G106A, I107S, S109K
VL: not shown
In the case of B5, in experiment [15], the Kd amounted to 1550 pM, the koff came out at 0.000351 s⁻¹ and the association rate constant (kon) was 226000 M⁻¹ s⁻¹.

B6: AF-mab023_12 (antibody, V domains shown)
VH: B2 VH with G106T, I107E, S109G
VL: not shown
For the molecule B6, in experiment [15], the Kd worked out at 176 pM, the koff was determined as 8.47e-05 s⁻¹ and the kon was determined as 480000 M⁻¹ s⁻¹.

B7: AF-mab023_13 (antibody, V domains shown)
VH: B2 VH with G106T, I107E
VL: not shown
As to B7, in experiment [15], the dissociation constant (Kd) was determined as 392 pM, the koff came out at 0.000178 s⁻¹ and the kon was determined as 455000 M⁻¹ s⁻¹.

B8: AF-mab023_02 (antibody, V domains shown)
VH: B2 VH with G106W, I107L, S109T
VL: not shown
Turning to B8, in [15], the Kd is 268 pM, the off-rate (koff) worked out at 8.2e-05 s⁻¹ and the kon was 306000 M⁻¹ s⁻¹.

B9: AF-mab023_15 (antibody, V domains shown)
VH: B2 VH with G106Q, I107D, S109N
VL: not shown
As for B9, in experiment [15], the Kd stood at 381 pM, the koff is 0.000182 s⁻¹ and the kon was determined as 477000 M⁻¹ s⁻¹.

B10: AF-mab023_04 (antibody, V domains shown)
VH: B2 VH with G106D, I107S, S109G
VL: not shown
In the case of B10, in [15], the Kd amounted to 409 pM, the koff worked out at 0.000239 s⁻¹ and the kon came out at 584000 M⁻¹ s⁻¹.

B11: AF-mab023_11 (antibody, V domains shown)
VH: B2 VH with G106Q, I107E
VL: not shown
For B11, in experiment [15], the Kd is 260 pM, the koff came to 0.000144 s⁻¹ and the kon was 553000 M⁻¹ s⁻¹.

B12: AF-mab023_05 (antibody, V domains shown)
VH: B2 VH with Y105H, G106W, I107L
VL: not shown
As to B12, in [15], the Kd came to 207 pM, the koff was 6.31e-05 s⁻¹ and the kon amounted to 305000 M⁻¹ s⁻¹.

B13: AF-mab023_03 (antibody, V domains shown)
VH: B2 VH with G106A, I107S
VL: not shown
On to B13, for which, in experiment [15], the Kd worked out at 1240 pM, the koff was found to be 0.00046 s⁻¹ and the kon was 370000 M⁻¹ s⁻¹.

B14: AF-mab023_14 (antibody, V domains shown)
VH: B2 VH with G106A, I107D, S109G
VL: not shown
For B14, in experiment [15], the Kd is 306 pM, the koff stood at 0.000164 s⁻¹ and the kon turned out to be 534000 M⁻¹ s⁻¹.

B15: AF-mab023_06 (antibody, V domains shown)
VH: B2 VH with Y105F, G106Q, I107S
VL: not shown
As for B15, in experiment [15], the Kd worked out at 225 pM, the koff is 6.59e-05 s⁻¹ and the kon came to 293000 M⁻¹ s⁻¹.

B16: AF-mab023_08 (antibody, V domains shown)
VH: B2 VH with Y105I, G106A, I107D
VL: not shown
For the molecule B16, in experiment [15], the Kd stood at 443 pM, the koff stood at 0.000158 s⁻¹ and the kon turned out to be 357000 M⁻¹ s⁻¹.

B17: AF-mab023_18 (antibody, V domains shown)
VH: B2 VH with G106A, I107D, S109D
VL: not shown
As to B17, in experiment [15], the Kd was found to be 292 pM, the koff stood at 0.000161 s⁻¹ and the kon stood at 551000 M⁻¹ s⁻¹.

B18: AF-mab023_17 (antibody, V domains shown)
VH: B2 VH with Y105T, I107M, S109E
VL: not shown
For the molecule B18, in [15], the Kd came out at 310 pM, the koff was 0.000109 s⁻¹ and the kon was determined as 351000 M⁻¹ s⁻¹.

B19: AF-mab023_10 (antibody, V domains shown)
VH: B2 VH with G106D, I107S, S109R
VL: not shown
As for B19, in experiment [15], the Kd came out at 1050 pM, the koff is 0.000328 s⁻¹ and the kon worked out at 313000 M⁻¹ s⁻¹.
